Reference: paper PMC8131196, “Structure and dynamics of a mycobacterial type VII secretion system” (Nature, 2021)

Legend:
Experiment in all cases: cryo-EM structure
[1] = biological target: T1, EccC5 (M. tuberculosis H37Rv, UniProt P9WNA5 1-1391); conditions: both partners purified
T1 construct: also called EccC5 ATPase; not shown: TwinStrep, C-terminal, kept
T1 sequence: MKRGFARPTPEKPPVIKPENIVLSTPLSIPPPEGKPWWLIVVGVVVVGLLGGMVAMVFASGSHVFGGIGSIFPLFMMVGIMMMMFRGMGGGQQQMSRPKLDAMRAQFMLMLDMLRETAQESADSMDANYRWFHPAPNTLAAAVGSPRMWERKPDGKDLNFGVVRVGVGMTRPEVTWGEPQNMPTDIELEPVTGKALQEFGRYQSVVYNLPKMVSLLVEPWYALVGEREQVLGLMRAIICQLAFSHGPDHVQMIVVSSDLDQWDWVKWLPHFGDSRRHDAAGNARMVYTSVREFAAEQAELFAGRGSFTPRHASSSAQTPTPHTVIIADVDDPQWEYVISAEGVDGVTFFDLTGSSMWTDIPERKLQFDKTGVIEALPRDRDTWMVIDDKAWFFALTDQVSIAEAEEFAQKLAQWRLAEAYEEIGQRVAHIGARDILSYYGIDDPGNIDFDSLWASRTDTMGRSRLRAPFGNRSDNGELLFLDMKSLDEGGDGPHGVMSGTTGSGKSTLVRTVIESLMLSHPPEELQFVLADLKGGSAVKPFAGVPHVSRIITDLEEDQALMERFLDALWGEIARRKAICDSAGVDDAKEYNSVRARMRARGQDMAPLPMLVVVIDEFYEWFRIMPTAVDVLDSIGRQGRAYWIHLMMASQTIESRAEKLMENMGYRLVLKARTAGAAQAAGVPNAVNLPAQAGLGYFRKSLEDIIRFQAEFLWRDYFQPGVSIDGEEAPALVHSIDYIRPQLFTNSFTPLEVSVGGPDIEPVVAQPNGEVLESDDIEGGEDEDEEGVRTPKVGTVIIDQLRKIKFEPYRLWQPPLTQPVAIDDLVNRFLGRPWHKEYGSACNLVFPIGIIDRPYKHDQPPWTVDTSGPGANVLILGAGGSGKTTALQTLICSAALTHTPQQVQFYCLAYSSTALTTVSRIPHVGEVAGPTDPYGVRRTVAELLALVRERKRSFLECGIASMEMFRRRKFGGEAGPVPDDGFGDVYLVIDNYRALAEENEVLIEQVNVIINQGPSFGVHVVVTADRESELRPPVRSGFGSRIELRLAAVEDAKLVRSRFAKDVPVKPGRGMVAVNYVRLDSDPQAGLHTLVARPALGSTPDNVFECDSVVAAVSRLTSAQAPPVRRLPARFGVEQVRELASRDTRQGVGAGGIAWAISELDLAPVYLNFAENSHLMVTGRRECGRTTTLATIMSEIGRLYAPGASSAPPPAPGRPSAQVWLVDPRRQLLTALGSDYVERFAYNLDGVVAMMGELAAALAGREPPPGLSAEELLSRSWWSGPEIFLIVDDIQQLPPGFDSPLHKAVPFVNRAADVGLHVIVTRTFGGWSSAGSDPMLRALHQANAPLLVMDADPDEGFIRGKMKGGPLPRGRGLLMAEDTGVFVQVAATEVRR

[2] = biological target: the molecule itself
[3] = biological target: T2, MycP5 protease (M. tuberculosis H37Rv, UniProt O53945 40-585); conditions: both partners purified
T2 construct: also called mycosin
T2 sequence: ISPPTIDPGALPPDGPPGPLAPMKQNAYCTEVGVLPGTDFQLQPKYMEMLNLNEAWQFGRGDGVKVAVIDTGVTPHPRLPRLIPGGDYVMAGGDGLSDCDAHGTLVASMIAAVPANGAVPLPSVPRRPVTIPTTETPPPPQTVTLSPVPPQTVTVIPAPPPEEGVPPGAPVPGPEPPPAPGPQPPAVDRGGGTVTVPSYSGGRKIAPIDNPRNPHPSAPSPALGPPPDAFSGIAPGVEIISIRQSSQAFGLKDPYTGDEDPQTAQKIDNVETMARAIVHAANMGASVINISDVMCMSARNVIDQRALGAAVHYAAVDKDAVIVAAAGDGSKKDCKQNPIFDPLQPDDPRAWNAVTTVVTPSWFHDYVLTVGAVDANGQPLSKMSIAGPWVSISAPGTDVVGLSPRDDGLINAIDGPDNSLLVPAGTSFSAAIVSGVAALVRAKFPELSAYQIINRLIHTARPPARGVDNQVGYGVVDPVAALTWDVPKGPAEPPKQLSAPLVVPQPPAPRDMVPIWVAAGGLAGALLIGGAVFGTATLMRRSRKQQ

[4] = biological target: T3, EccB5 (M. tuberculosis H37Rv, UniProt P9WNQ9 1-506); conditions: both partners purified
T3 construct: also called inner EccB5; outer EccB5
T3 sequence: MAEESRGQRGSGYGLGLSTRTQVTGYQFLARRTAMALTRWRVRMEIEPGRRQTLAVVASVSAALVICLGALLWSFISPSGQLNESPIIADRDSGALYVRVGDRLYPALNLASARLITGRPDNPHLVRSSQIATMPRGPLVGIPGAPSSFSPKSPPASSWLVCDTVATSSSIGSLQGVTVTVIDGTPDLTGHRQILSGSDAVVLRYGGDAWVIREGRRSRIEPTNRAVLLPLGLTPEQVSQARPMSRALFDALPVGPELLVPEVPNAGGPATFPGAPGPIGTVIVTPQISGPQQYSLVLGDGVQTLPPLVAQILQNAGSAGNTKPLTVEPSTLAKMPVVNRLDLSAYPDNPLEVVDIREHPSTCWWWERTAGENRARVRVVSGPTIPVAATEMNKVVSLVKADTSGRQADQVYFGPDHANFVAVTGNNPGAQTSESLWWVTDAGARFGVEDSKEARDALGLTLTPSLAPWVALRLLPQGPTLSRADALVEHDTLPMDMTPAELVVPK

B1: EccD5 (natural protein)
chain: MTAVADAPQADIEGVASPQAVVVGVMAGEGVQIGVLLDANAPVSVMTDPLLKVVNSRLRELGEAPLEATGRGRWALCLVDGAPLRATQSLTEQDVYDGDRLWIRFIADTERRSQVIEHISTAVASDLSKRFARIDPIVAVQVGASMVATGVVLATGVLGWWRWHHNTWLTTIYTAVIGVLVLAVAMLLLMRAKTDADRRVADIMLMSAIMPVTVAAAAAPPGPVGSPQAVLGFGVLTVAAALALRFTGRRLGIYTTIVIIGALTMLAALARMVAATSAVTLLSSLLLICVVAYHAAPALSRRLAGIRLPVFPSATSRWVFEARPDLPTTVVVSGGSAPVLEGPSSVRDVLLQAERARSFLSGLLTGLGVMVVVCMTSLCDPHTGQRWLPLILAGFTSGFLLLRGRSYVDRWQSITLAGTAVIIAAAVCVRYALELSSPLAVSIVAAILVLLPAAGMAAAAHVPHTIYSPLFRKFVEWIEYLCLMPIFPLALWLMNVYAAIRYR
notes: also called inner EccD5; outer EccD5
binding result [1]: binds | stoichiometry N [2]: 2 | binding result [3]: binds | binding result [4]: binds
